Measurements taken from patent publication US20180346602A1.
Where a chain is given by its changes, count along the chain named. Blank lines part the entries; values can stand above or below the binder they belong to.

What was measured:
[1] = biological target: anti-VEGF/ANG2 antibody (wild-type IgG1 subclass) [IgG part: P01857]; test: sandwich ELISA assay A; capture M1.7.10-Bi; antibody 5 at 6 ng/mL
[2] = biological target: anti-VEGF/ANG2 antibody (IgG1 subclass with mutations P329G/L234A/L235A) [IgG part: P01857]; test: sandwich ELISA assay A; capture M1.7.10-Bi; antibody 2 at 100 ng/mL
[3] = biological target: anti-VEGF/ANG2 antibody (IgG1 subclass with mutations P329G/L234A/L235A/I253A/H310A/H435A) [IgG part: P01857]; test: sandwich ELISA assay A; capture M1.7.10-Bi; antibody 1 at 2 ng/mL
[4] = biological target: anti-VEGF/ANG2 antibody (IgG1 subclass with mutations P329G/L234A/L235A/I253A/H310A/H435A) [IgG part: P01857]; test: sandwich ELISA assay A; capture M1.7.10-Bi; antibody 1 at 6 ng/mL
[5] = biological target: anti-VEGF/ANG2 antibody (IgG1 subclass with mutations P329G/L234A/L235A/I253A/H310A/H435A) (human) [IgG part: P01857]; test: sandwich ELISA assay B; capture on SA plate; tracer M1.7.10-Dig; analyte 2 ng/mL
[6] = biological target: anti-VEGF/ANG2 antibody (IgG1 subclass with mutations P329G/L234A/L235A) (human) [IgG part: P01857]; test: as above
[7] = biological target: anti-P-Selectin antibody (IgG4 subclass with mutations S228P/L235E) (human) [IgG part: P01861]; test: as above
[8] = biological target: anti-IGF-1R antibody (IgG1 subclass with mutations I253A/H310A/H435A) (human) [IgG part: P01857]; test: as above
[9] = biological target: anti-VEGF/ANG2 antibody (wild-type IgG1 subclass) [IgG part: P01857]; test: sandwich ELISA assay A; capture M1.7.10-Bi; antibody 5 at 100 ng/mL
[10] = biological target: anti-IGF-1R antibody (IgG1 subclass with mutations I253A/H310A/H435A) [IgG part: P01857]; test: sandwich ELISA assay A; capture M1.7.10-Bi; antibody 3 at 100 ng/mL
[11] = biological target: anti-VEGF/ANG2 antibody (IgG1 subclass with mutations P329G/L234A/L235A/I253A/H310A/H435A) [IgG part: P01857]; test: sandwich ELISA assay A; capture M1.7.10-Bi; antibody 1 at 100 ng/mL
[12] = biological target: anti-VEGF/ANG2 antibody (IgG1 subclass with mutations P329G/L234A/L235A) (human) [IgG part: P01857]; test: sandwich ELISA assay B; capture on SA plate; tracer M1.7.10-Dig; analyte 3 ng/mL
[13] = biological target: anti-IGF-1R antibody (IgG1 subclass with mutations I253A/H310A/H435A) (human) [IgG part: P01857]; test: as above
[14] = biological target: anti-VEGF/ANG2 antibody (IgG1 subclass with mutations P329G/L234A/L235A/I253A/H310A/H435A) [IgG part: P01857]; test: sandwich ELISA assay A; capture M1.7.10-Bi; antibody 1 at 13 ng/mL
[15] = biological target: anti-IGF-1R antibody (IgG1 subclass with mutations I253A/H310A/H435A) [IgG part: P01857]; test: sandwich ELISA assay A; capture M1.7.10-Bi; antibody 3 at 25 ng/mL
[16] = biological target: anti-VEGF/ANG2 antibody (IgG1 subclass with mutations P329G/L234A/L235A/I253A/H310A/H435A) (human) [IgG part: P01857]; test: sandwich ELISA assay B; capture on SA plate; tracer M1.7.10-Dig; analyte 13 ng/mL
[17] = biological target: anti-VEGF/ANG2 antibody (IgG1 subclass with mutations P329G/L234A/L235A) (human) [IgG part: P01857]; test: as above
[18] = biological target: anti-P-Selectin antibody (IgG4 subclass with mutations S228P/L235E) (human) [IgG part: P01861]; test: as above
[19] = biological target: anti-IGF-1R antibody (IgG1 subclass with mutations I253A/H310A/H435A) (human) [IgG part: P01857]; test: as above
[20] = biological target: anti-IGF-1R antibody (IgG1 subclass with mutations I253A/H310A/H435A) [IgG part: P01857]; test: sandwich ELISA assay A; capture M1.7.10-Bi; antibody 3 at 13 ng/mL
[21] = biological target: anti-IGF-1R antibody (IgG1 subclass with mutations I253A/H310A/H435A) [IgG part: P01857]; test: sandwich ELISA assay A; capture M1.7.10-Bi; antibody 3 at 2 ng/mL
[22] = biological target: anti-VEGF/ANG2 antibody (IgG1 subclass with mutations P329G/L234A/L235A/I253A/H310A/H435A) (human) [IgG part: P01857]; test: sandwich ELISA assay C; capture on SA plate; tracer FcγRI-Dig; analyte 100 ng/mL
[23] = biological target: anti-VEGF/ANG2 antibody (IgG1 subclass with mutations P329G/L234A/L235A) (human) [IgG part: P01857]; test: as above
[24] = biological target: anti-P-Selectin antibody (IgG4 subclass with mutations S228P/L235E) (human) [IgG part: P01861]; test: as above
[25] = biological target: anti-IGF-1R antibody (IgG1 subclass with mutations I253A/H310A/H435A) (human) [IgG part: P01857]; test: as above

- signal [OD405 nm] [1]: 0.046 OD405 nm
- signal [OD405 nm] [2]: 0.076 OD405 nm
- signal [OD405 nm] [3]: 0.055 OD405 nm
- signal [OD405 nm] [4]: 0.057 OD405 nm
- signal [OD405 nm] [5]: 0.041 OD405 nm
- signal [OD405 nm] [6]: 0.041 OD405 nm
- signal [OD405 nm] [7]: 0.032 OD405 nm
- signal [OD405 nm] [8]: 1.48 OD405 nm
- signal [OD405 nm] [9]: 0.056 OD405 nm
- signal [OD405 nm] [10]: 2.89 OD405 nm
- signal [OD405 nm] [11]: 0.059 OD405 nm
- signal [OD405 nm] [12]: 0.044 OD405 nm
- signal [OD405 nm] [13]: 2.26 OD405 nm
- signal [OD405 nm] [14]: 0.061 OD405 nm
- signal [OD405 nm] [15]: 2.51 OD405 nm
- signal [OD405 nm] [16]: 0.041 OD405 nm
- signal [OD405 nm] [17]: 0.066 OD405 nm
- signal [OD405 nm] [18]: 0.042 OD405 nm
- signal [OD405 nm] [19]: 2.85 OD405 nm
- signal [OD405 nm] [20]: 1.74 OD405 nm
- signal [OD405 nm] [21]: 0.199 OD405 nm
- signal [OD405 nm] [22]: 0.079 OD405 nm
- signal [OD405 nm] [23]: 0.076 OD405 nm
- signal [OD405 nm] [24]: 0.069 OD405 nm
- signal [OD405 nm] [25]: 2.1 OD405 nm
B1: anti-AAA variant Fc-region antibody M1.6.22 (antibody, V domains shown)
VH: EVQLVESGGDLVKPGGSLKLSCAASGFTFSSYGMSWVRQTPDKRLEWVATISSGGSYIYYPDSVKGRFTISRDNAKNTLYLQMSSLKSEDTAMYYCARLGMITTGYAMDYWGQGTSVTVSS
VL: DVLMTQTPLSLPVSLGDQASISCRSSQTIVHSTGHTYLEWFLQKPGQSPKLLIYKVSNRFSGVPDRFSGSGSGTDFTLKISRVEAEDLGVYYCFQGSHVPYTFGGGTKLEIK

- signal [OD405 nm] [1]: 0.036 OD405 nm
- signal [OD405 nm] [2]: 3.04 OD405 nm
- signal [OD405 nm] [3]: 0.043 OD405 nm
- signal [OD405 nm] [4]: 0.042 OD405 nm
- signal [OD405 nm] [5]: 0.036 OD405 nm
- signal [OD405 nm] [6]: 0.125 OD405 nm
- signal [OD405 nm] [7]: 0.049 OD405 nm
- signal [OD405 nm] [8]: 0.047 OD405 nm
- signal [OD405 nm] [9]: 0.042 OD405 nm
- signal [OD405 nm] [10]: 0.047 OD405 nm
- signal [OD405 nm] [11]: 0.043 OD405 nm
- signal [OD405 nm] [12]: 0.165 OD405 nm
- signal [OD405 nm] [13]: 0.047 OD405 nm
- signal [OD405 nm] [14]: 0.04 OD405 nm
- signal [OD405 nm] [15]: 0.043 OD405 nm
- signal [OD405 nm] [16]: 0.034 OD405 nm
- signal [OD405 nm] [17]: 0.217 OD405 nm
- signal [OD405 nm] [18]: 0.047 OD405 nm
- signal [OD405 nm] [19]: 0.044 OD405 nm
- signal [OD405 nm] [20]: 0.04 OD405 nm
- signal [OD405 nm] [21]: 0.042 OD405 nm
- signal [OD405 nm] [22]: 1.19 OD405 nm
- signal [OD405 nm] [23]: 1.22 OD405 nm
- signal [OD405 nm] [24]: 1.17 OD405 nm
- signal [OD405 nm] [25]: 1.2 OD405 nm
B2: anti-variant (human) Fc-region antibody M1.3.17 (antibody, V domains shown)
VH: EVKLLESGGGLVQPGGSLKLSCAASGIDFRRYWMNWVRQAPGKGLEWIGEIDPDSSTINYTPSLKDKFIISRDNAKNTMYLQMRKVRSEDTALYYCARPYDYGAWFAYWGQGTLVTVSA
VL: QAVVTQESALTTSPGETVTLTCRSTTGAVTTSNYANWVQEKPDHLFTGLIGGTNKRAPGVPARFSGSLIGDKAALTITGAQTEDEAIYFCALWYSDHWVFGGGTKLTVL

- signal [OD405 nm] [1]: 0.042 OD405 nm
- signal [OD405 nm] [2]: 2.65 OD405 nm
- signal [OD405 nm] [3]: 0.042 OD405 nm
- signal [OD405 nm] [4]: 0.045 OD405 nm
- signal [OD405 nm] [5]: 0.049 OD405 nm
- signal [OD405 nm] [6]: 1.73 OD405 nm
- signal [OD405 nm] [7]: 0.033 OD405 nm
- signal [OD405 nm] [8]: 0.047 OD405 nm
- signal [OD405 nm] [9]: 0.042 OD405 nm
- signal [OD405 nm] [10]: 0.06 OD405 nm
- signal [OD405 nm] [11]: 0.053 OD405 nm
- signal [OD405 nm] [12]: 2.51 OD405 nm
- signal [OD405 nm] [13]: 0.046 OD405 nm
- signal [OD405 nm] [14]: 0.047 OD405 nm
- signal [OD405 nm] [15]: 0.047 OD405 nm
- signal [OD405 nm] [16]: 0.053 OD405 nm
- signal [OD405 nm] [17]: 3.15 OD405 nm
- signal [OD405 nm] [18]: 0.037 OD405 nm
- signal [OD405 nm] [19]: 0.043 OD405 nm
- signal [OD405 nm] [20]: 0.044 OD405 nm
- signal [OD405 nm] [21]: 0.048 OD405 nm
- signal [OD405 nm] [22]: 0.05 OD405 nm
- signal [OD405 nm] [23]: 0.082 OD405 nm
- signal [OD405 nm] [24]: 0.08 OD405 nm
- signal [OD405 nm] [25]: 0.11 OD405 nm
B3: anti-variant (human) Fc-region antibody M1.7.24 (antibody, V domains shown)
VH: B2 VH with I27F, R30S, D52T, M79L, R84I, A97V, Y108S
VL: B2 VL with T25S, D96N
